Source: patent publication US20170000857A1

Target: ALMS1 (Alstrom syndrome protein 1) (human) (UniProt Q8TCU4)
Test: cell-based or functional assay

Chain of UniProt Q8TCU4 (Q8TCU4 other isoform, or with tags, fused parts or gaps limits assumed): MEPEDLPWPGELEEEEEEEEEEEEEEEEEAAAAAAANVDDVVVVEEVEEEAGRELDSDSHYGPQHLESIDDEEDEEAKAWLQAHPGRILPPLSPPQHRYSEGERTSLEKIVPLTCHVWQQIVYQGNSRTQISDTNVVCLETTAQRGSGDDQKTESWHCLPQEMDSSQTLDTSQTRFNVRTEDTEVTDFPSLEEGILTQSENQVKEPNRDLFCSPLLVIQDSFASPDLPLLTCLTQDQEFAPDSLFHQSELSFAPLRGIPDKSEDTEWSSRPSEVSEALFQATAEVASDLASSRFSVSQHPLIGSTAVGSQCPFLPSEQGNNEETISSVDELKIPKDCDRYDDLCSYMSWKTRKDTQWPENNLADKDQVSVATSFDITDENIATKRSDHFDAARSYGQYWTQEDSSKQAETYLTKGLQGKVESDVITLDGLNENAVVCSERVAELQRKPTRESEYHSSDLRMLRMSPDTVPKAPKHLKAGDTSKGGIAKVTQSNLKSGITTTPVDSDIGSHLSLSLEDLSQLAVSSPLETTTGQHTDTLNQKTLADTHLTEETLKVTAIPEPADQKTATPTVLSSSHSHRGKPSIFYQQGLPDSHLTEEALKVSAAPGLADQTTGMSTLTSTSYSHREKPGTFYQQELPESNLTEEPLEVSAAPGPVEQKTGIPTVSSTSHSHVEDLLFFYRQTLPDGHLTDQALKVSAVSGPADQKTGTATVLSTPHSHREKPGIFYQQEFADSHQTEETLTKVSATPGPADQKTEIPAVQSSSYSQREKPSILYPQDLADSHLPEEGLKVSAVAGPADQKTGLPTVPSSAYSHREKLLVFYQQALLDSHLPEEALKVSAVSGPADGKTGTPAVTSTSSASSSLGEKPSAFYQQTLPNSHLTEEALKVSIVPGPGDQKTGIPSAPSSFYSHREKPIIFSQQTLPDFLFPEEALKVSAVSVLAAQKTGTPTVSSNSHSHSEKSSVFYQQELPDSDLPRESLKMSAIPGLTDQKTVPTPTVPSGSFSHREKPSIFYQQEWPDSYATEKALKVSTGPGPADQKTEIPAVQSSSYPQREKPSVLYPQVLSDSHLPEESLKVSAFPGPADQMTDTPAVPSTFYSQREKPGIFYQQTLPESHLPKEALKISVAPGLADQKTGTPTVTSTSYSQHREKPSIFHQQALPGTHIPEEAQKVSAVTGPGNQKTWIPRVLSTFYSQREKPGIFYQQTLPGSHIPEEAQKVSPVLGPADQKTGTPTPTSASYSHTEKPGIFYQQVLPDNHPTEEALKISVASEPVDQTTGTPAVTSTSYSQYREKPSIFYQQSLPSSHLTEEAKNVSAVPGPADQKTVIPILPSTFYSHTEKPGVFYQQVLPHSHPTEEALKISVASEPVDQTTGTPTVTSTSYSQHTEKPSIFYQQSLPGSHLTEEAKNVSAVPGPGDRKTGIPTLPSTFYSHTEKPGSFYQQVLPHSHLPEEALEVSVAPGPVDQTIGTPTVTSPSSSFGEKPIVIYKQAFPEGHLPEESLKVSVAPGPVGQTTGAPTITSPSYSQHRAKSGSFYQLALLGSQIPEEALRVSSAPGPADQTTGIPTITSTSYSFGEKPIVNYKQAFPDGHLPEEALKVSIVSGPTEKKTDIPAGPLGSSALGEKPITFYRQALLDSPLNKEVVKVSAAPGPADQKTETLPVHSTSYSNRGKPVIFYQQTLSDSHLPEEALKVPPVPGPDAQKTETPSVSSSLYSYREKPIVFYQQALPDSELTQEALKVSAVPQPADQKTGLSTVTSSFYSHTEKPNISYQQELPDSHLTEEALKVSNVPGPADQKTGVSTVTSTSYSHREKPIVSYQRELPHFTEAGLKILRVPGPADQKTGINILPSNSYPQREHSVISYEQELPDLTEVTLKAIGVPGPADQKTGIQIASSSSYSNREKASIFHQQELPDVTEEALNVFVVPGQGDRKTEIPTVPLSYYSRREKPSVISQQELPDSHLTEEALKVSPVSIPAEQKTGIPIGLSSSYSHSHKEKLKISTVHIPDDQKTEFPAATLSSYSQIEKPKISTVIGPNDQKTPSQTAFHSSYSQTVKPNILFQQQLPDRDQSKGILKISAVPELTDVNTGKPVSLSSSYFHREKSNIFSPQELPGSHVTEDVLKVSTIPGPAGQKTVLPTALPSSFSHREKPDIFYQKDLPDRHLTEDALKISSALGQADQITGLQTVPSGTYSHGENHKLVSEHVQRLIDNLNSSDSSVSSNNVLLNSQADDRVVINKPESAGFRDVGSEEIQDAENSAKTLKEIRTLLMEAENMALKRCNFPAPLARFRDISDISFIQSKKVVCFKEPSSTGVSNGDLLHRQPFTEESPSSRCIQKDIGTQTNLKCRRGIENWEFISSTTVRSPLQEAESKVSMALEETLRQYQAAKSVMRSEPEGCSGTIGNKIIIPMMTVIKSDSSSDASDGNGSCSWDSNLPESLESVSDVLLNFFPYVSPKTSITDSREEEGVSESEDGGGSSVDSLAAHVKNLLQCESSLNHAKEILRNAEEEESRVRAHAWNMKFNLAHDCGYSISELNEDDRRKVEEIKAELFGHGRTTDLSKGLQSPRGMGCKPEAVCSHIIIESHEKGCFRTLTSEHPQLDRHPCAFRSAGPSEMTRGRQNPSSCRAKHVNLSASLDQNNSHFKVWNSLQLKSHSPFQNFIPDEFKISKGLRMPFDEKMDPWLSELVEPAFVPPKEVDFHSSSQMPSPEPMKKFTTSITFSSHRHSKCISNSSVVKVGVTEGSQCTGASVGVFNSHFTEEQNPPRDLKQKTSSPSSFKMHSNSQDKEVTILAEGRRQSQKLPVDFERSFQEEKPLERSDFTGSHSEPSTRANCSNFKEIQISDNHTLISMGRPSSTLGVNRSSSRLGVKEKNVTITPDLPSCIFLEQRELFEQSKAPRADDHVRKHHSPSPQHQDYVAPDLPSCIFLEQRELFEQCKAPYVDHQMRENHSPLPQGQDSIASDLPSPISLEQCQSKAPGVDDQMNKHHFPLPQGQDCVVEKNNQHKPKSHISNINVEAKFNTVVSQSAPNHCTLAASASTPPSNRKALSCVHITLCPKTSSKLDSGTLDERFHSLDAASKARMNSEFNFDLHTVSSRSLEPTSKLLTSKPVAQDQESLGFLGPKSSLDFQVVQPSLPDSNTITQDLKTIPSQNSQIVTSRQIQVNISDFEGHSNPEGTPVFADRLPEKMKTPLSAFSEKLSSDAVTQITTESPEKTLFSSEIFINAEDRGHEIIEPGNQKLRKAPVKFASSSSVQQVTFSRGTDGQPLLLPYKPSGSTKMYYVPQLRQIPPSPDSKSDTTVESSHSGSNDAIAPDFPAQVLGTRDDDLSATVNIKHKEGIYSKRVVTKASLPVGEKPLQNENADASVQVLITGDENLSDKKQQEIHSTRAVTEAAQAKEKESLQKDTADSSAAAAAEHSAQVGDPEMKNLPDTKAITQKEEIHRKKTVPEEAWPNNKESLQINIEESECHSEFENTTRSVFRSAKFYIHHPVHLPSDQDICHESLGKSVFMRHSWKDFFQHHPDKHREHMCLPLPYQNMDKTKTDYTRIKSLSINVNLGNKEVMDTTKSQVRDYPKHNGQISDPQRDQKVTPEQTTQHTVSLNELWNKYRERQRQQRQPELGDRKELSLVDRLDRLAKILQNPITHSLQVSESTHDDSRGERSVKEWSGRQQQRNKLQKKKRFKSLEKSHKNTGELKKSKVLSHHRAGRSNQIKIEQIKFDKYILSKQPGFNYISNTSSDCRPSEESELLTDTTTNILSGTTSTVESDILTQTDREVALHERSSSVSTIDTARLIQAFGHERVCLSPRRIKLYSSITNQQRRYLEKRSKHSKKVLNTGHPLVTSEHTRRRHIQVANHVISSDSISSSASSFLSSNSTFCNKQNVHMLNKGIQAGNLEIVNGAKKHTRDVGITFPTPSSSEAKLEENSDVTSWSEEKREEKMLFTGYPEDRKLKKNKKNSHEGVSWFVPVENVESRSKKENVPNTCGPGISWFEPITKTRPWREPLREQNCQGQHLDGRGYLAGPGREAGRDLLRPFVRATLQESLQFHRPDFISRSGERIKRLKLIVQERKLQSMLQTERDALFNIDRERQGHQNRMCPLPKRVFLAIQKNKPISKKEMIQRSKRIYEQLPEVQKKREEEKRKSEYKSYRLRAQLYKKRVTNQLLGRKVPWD

min-αPKC-FLAG (ALMS1-interacting domain of human PKCα with N-terminal FLAG tag) (from UniProt P05696 336-672)
2-NBDG absorption in mature adipocytes in absence of INS (times (vs control)): 3.5
